According to the DeepSol protein solubility set:

Assay: soluble on expression in E. coli; label from the status in PepcDB or PDB records

Question: For “MAHHHHHHMEVEGTKERARGVTTFTRADLELREAAEDHRALLAEPWASHALRKGYSGREEHTKWITETWEAFERRKEDQKLYLERHDLCLQYKAAQLSETRRLSEQKSAALVEKMMALEAARKGALLQSRHFLFVDYYDYQQFLFRNQRSFVEDEEKLLRCKLSETEDDLMCLLVIQWHLSSHLHAAREKERVEEEAAAERLREFQYRQKLEEERLREEQRIAQEKEASQAEKEQAELEKRLERKRRDAERRAKVRAEREQRRAQE”, which “soluble on expression in E. coli” value is on record?
Answer: not soluble

Question: For “MAHHHHHHMFLLCRTNLAKKIKDKIPYGVKQSQNYKDAKKQERLALEANRKLKESRGMLLDGKKNLFMCLRQNSDINWYRAGQILKHLEIHQRAKPDITPSLREKITNIANFVKKGR”, which “soluble on expression in E. coli” value is on record?
Answer: soluble

Question: With “MAHHHHHHMFMCRVHARARYLYILQNGSVEEMTALLTKLRAAVPSERLIIEHRPQNIGYAAAVNEGYRVALQKPHAEVPFIGVFNCDVYFERRYFGRYIPVVYKMLAPDAARIRALEEVVEQEERAARAAGRQTLRASVATTPGLSISMLLPDRIRYSSFAEQQDEFKGHVGMFYYETKSMCAFLVSRLALLVGGFLDENFYPAYFEDYDWQFRLANLGFKTFTGSSAQFGGFFHRMGGNIRVINKGPAGKSISYDMAAIRVERMLNAKPGIDYGETKWAWHREALVAMSATPFPQLGFIVPLDVWVLDAARHQLIIDIGTGRRPSVEMSNTYNVSLLSSLRRFALADGKDFWGSGIITTEPDWRK” as the sequence, how does the “soluble on expression in E. coli” value read?
Answer: not soluble

Question: With “MAHHHHHHMFMVDTDGSAISYHIPVSPFVPLQHDKIDVTTVNRLANFGMRFAMEHGWCYNRHSGDAHSNYASEAVEEGYVESGEDVTVFFAGVDVELVGEFPKFDGKITPASVFFLGQFWISHVGKSSFGVYGKIFRYEAADEKNKFPIGVFKLTGVNVSKKSRRPVPIPKERAEMLLETMRRHQLNTSLPLVVRIDVADFLSRSGLFTDTTYCKLVDKMATYASVTPLTVTYRREFHIRQSDIDFNRHVNQMALIQFVINTFRSALLDQTTVFPRLLDVGVDAIVGDLLLRRLHIDYIRETPMGHQSVAVALFFAEDSSRDAVIASTPESRGNQLAELCFLAQGIPGDGSPSYIAAVGKLYFFC” as the sequence, how does the “soluble on expression in E. coli” value read?
Answer: not soluble

Question: With “MAHHHHHHMGGAIYNAVNIAEIVKRRIAGLHQITELGSELVRDEYEPIDRTQNPENVVVERKVSTILITLSRNCLDKSNPGYQEPIADSEVTEQERRDPNMSRRGGRGGIRGGRGGSRGGRGGSRGGRGGSRGGRGVAAIDRRDDREN” as the sequence, how does the “soluble on expression in E. coli” value read?
Answer: not soluble

Question: Which “soluble on expression in E. coli” value does the source give for “MAHHHHHHMGKHIRILKNQYLQFMSKRCIQSKAAFNICGKINVENPIVELDGDEMTRIIWKDIKEKLILPYVNLKIKYFDLSIENRDKTNDQVTIEAAEEIKKTSVGIKCATITPDAARVKEFNLKEMWKSPNGTIRNILDGTVFRTPILIKNIPKLVPNWKKPIVIGRHAYADQYKQKSLKIEKSGKFEIVFTPDDNSQVLRETVFHFKSPGVCLGMYNTEESIRNFALSCFQYALDLKMPVYMSTKSTILKIYDGLFKDIFDEIYEKQFKKSFEQHNLWYEHKLIDDMVAQVLKSEGGFLWACKNYDGDIQSDAVAQGYGSLGLMSSVLLCPDGVTCVSEAAHGTVTRHYRAYQKGEKTSTNPIASIFAWTKGLEHRAKLDKNDNLKQFCYALEKACIETVEDGLMSKDLAGCIKGIKNVTEKDYIFTQDLINAINEKLKLKILQNQSKNDPQATSYKLKNDNWNFYAPQEHST” here?
Answer: not soluble

Question: With “MAHHHHHHMGLEIFEIDTSTPHTGVVIDGTTACREANSGWVTLRAKTPLSAGQCQWAMKVIDQGEGNDGSGLMMGLLPRLNSQQEVAMGSKYISELGGWCLSRAGDSYGCWKCDKMPFSTGCVVEFDWDAASRTLYIVSGKRKASGHIPNVSEADVVYPAFSMFYLNQKLAFV” as the sequence, how does the “soluble on expression in E. coli” value read?
Answer: soluble

Question: Which “soluble on expression in E. coli” value does the source give for “MAHHHHHHMGNKLCCINNDLQNSKSSIDIYKYDPREIYGDYDDWTLESWIDKYKNGNSIKVAFPDGNEIQCHFKIFLKERCFELSLDNKVRVIKFNDINCILHRNSCESLLESEQNLLKSPKVIGIRLISTLKAIAFAMDSPGEARMFYEFIEKYCLNG” here?
Answer: not soluble

Question: With “MAHHHHHHMGTLEAQTQGPGSMAIDPNSIGAVTEPMLFEWTDRDTLLYAIGVGAGTGDLAFTTENSHGIDQQVLPTYAVICCPAFGAAAKVGTFNPAALLHGSQGIRLHAPLPAAGKLSVVTEVADIQDKGEGKNAIVVLRGRGCDPESGSLVAETLTTLVLRGQGGFGGARGERPAAPEFPDRHPDARIDMPTREDQALIYRLSGDRNPLHSDPWFATQLAGFPKPILHGLCTYGVAGRALVAELGGGVAANITSIAARFTKPVFPGETLSTVIWRTEPGRAVFRTEVAGSDGAEARVVLDDGAVEYVAG” as the sequence, how does the “soluble on expression in E. coli” value read?
Answer: soluble

Question: For “MAHHHHHHMGTLEAQTQGPGSMENKEKIYEGKAKIIFATLNPLEVIQHFKDEITAFNNKKAAIIHEKGILNNYISSFLMKKLIDKGIKTHFISLLNQREQLVKKITIIPIEVVIRNLAAGNFSKRFQIADGTPFKSPIIEFYYKNDELSDPMVSEGHILSFQWLTNQELEKIKILSLKINNILSELFFNVGIKLVDFKLEFGKLHNDEQSDLFLADEISPDTCRLWDISTNKRLDKDRYRLNLGNVIEGYREVAHKLNAIPNL”, which “soluble on expression in E. coli” value is on record?
Answer: soluble

Question: For “MAHHHHHHMGTLEAQTQGPGSMKLLFVCLGNICRSPAAEAVMKKVIQNHHLTEKYICDSAGTCSYHEGQQADSRMRKVGKSRGYQVDSISRPVVSSDFKNFDYIFAMDNDNYYELLDRCPEQYKQKIFKMVDFCTTIKTTEVPDPYYGGEKGFHRVIDILEDACENLIIKLEEGKLIN”, which “soluble on expression in E. coli” value is on record?
Answer: soluble

Question: For “MAHHHHHHMGTLEAQTQGPGSMSGDRDDPRYPYPKDDAELRRRLTPMQYEVTQHAATEPPFTGEYTDTEDAGIYHCVVCGTALFESGAKYHSGCGWPSYFKPIDGEVIDEKMDYTHGMTRVEVRCNQCGAHLGHVFEDGPRDKTGLRYCINSAALNFEAKPERK”, which “soluble on expression in E. coli” value is on record?
Answer: soluble

Question: Which “soluble on expression in E. coli” value does the source give for “MAHHHHHHMGYTRERTNRHFFVARANAFFSRLPIARVQRSLAMEAVREGRMRPWKYTKEQILGAPVTCNFEYNPRPVRLIGTVMDAHTEETSIKGGLKVYARNEETNMMLWIPPGNPKLRHEVTSTKGSFQHYLDERDKWDEAWITGRARMK” here?
Answer: not soluble

Question: Which “soluble on expression in E. coli” value does the source give for “MAHHHHHHMHNSVPASNTCSPFREETVSKRGKRSRGTGGDDKITRGTCSQPFSVITLPPGKLLEWLVCSPCRVYDVNLPRSRNNDNNISSLQCAVLPNFFVEYGGRSYSCVAKVCKPQLRKVLLRALAAVRQEMGSVDDIPHDSLLVVAVSPINAFSSECIHDASRTAMPRAREGCKIVGLCVARELSAPHRMHCESNWSHEKSEASGVGAAVQEGLGDCWEEDATRVGGTNNVRKAFCGVQLVWVADCYRRHGVAKVLVDTARRHISYGFEVPVERVAFSEPTSLGKLFAKSYSGRPDFLIF” here?
Answer: not soluble

Question: Which “soluble on expression in E. coli” value does the source give for “MAHHHHHHMHRQTAALQGSTVPAFCELLHSRGEAWLGLLGAALALPVHNATADGPSPNSFATPPSCSPSDAPALSEACSRLLSTYFIAAKAQCVEGADASMMKTLVKLTLAHTEWRTRLAMALPQRTGHPTAASSPTRAVTALIDAVAAVGLCDATLHFFTAKTLLGECVFRLLESEAWPTWAPEYCSAPLPQQAEHGVSGAFVHGEGGEPPDWQRLYAEVSHRTRLVPASMHTTEPPSPAFSILQLAQDLQDHLERTVQQSHLALSFTEGGV” here?
Answer: not soluble

Question: With “MAHHHHHHMIENLQNCKKLRLLELGYNKIRMIENIEHLTNLEELWLGKNKIEQINLPYLPKLKKLSVQHNRLTDICEKSIKNILCVEELYISYNKINHIIDTFKDLKHLKVFDLSYNEINNISICSYLKSLEELWLNNNNIDNLEMIKKLSTIENLKTLYLEKNKIQDNLKENYRKTIIHILPQLKQLDALPIPSSPTLQK” as the sequence, how does the “soluble on expression in E. coli” value read?
Answer: not soluble

Question: With “MAHHHHHHMIFVERQTDTENAAYLLAKMLGIHIRNIGMIHGGMQQRQRDYIMNGFKHSQTRILVATDVASRGIDFPDVTCVVNFIAPKSIDRYCHRIGRTGRAGRTGDSFTFIGHSDGCLAKDLVGYLKKCGMEVPQKLLDIAGKYVQYEEQRHLRRSWSGRSGRGFKRQKQDSPAPYQSSSW” as the sequence, how does the “soluble on expression in E. coli” value read?
Answer: not soluble

Question: With “MAHHHHHHMIKLGNFAWQLLTRADGSNLGGVLRGSRKVCSLSVARLSKHPYKPKTKEVIHPHVTPPEFLSPSDCFEAKTDELQQYLPSNYYRTKWVESLRAGEHLGSDYPWNLLPHWKFWKKRKYNVVYGEVPWFVSKVKGVSYYQRLNVWMVQWVEEGVHRIRRFRCAFGVLQAKLAAEQFRRNLEESGRVDNRKSERQLRMDYIQKRDERLLRKKRYSKVSKGQF” as the sequence, how does the “soluble on expression in E. coli” value read?
Answer: not soluble

Question: For “MAHHHHHHMITLQLEQHRQQLENELRKVQLQQAQQQQQLQHVQHHHNQHNQHQQQQQLQYQQSLPPVQTTMVTIDGRLYRMVSASSGEAFVNRGQPCRDLHFVDRSALVSDGSAGADGRTEAAAPQPSNHPGVCMPVSPQAELSPQQQQQHMIITVAGDRSALGETTSAAAAASLAKSSAPGTNVMLVMPTPSASHKVKYGY”, which “soluble on expression in E. coli” value is on record?
Answer: soluble

Question: For “MAHHHHHHMKAASAAAPAAQTKAAAEAKAATATTAASSLSLSLLQYGASLYEAHTHLPEAAVARLPLNRYADYLRHFGFSMERESRGAAAPGTTLALDCTSPNHKTQAPLDGRWGKRVETDTSYDPVEVAGWGLPEALRCEADQQCNAVGSLSDATEWSAIAKQLVHPFMSVTWRQTATQCTMKKACCVYMWLCSHMTLQVSVPGAEEDAKEDSGGVSTVGLPSAAKAASLARKANRPARKVKEVPTTLEPAAPPDPLLVALQTRRAPAPVLADVYMHMLTSVGVLCEVVVGQLKGAAPEEAFEWSWNMVTVDGRQYLVDVSAALSNGVLRSAASYSDVPSSVAVPEAGKGQRAGNAAGRGKAATPSQSSPPAGSGAVPCSESVQLLPVTPERLRREFFFFAHPTYFLASHFPADPAKALVRTAMRAVQWGVRPRLTPAFYYYGLQLASHKTHSTFAASGSPSYVSFVNHHASTTELCCALYMGTLGTLPEDLSQTAPLGAEWVWHQREESTSTDTFTLTVPQAGYYVVVIGARPIRADPYSAVFTVAGETAFTPVVSYEMRVGFTPSSSPVLPRQYLSPSICRLITPLCSQILPGKHTFCVMPSCSNVLAVAVVKFVAAAATRTLLSLLPFQPRSAAFEGDVDVRSGECVEVWVLYGAPDRNGQELSQRAAAAAPPKAAATPCRSPTPAAKFKAADKKKREASAEHQQQLSALESQLAHLTQALHKGEVFQRCVGGIEVRHFVSPAVVGVIQPQPMVEQEQSITLRRLAGVTDALLREAEEVVRRQPAPVGSYFGAVEAAAAKS”, which “soluble on expression in E. coli” value is on record?
Answer: not soluble

Question: Which “soluble on expression in E. coli” value does the source give for “MAHHHHHHMKALQRGWRVICATRGGVPIHGSPLYNDFTSLQQKHGDTLSQGVAHDTCHVPQPLEFVSLDATSRLQVFQFMDDHPDASAIISCIGLLTRDHEMARRVCGDANVNIAAALYERRAVARRMVLISAEPVGTRAGFFLNSRWALKGYFMGKRVAERAVLENLGDDGAVLRPGFIYGTRHVPLGEGCVPVPLWPIGKPLEAVLRPLHLHGLLVPPISVDVVAEAAVRLAEAPGPSTVLDYYGMQQVCGLPQDGHHVLGG” here?
Answer: not soluble

Question: Which “soluble on expression in E. coli” value does the source give for “MAHHHHHHMKELVSSFLNNLSQVSSELSCCKNKKFHVDNVSLCGIEDVLHNRDRSSLIDKEKINTLMELYKNENIYESYEEYDIDKYEKIKNNNILKNMGGNKLNVCNACLFCNNNNSQNHMNKNKNVSENINNVIDLDDEILIANFPFNSLRDVENLTYTNSEHTLNNKEYSYIKNSIDLDFDQQIKNQKKNNNSKNSSHLYNEIVKEGEYDNDDSPNFDEDSSQFKFSVLNNIKNNIHNTKDELTNNYNIIKNTLNQDYEKNIDQKEKHDIIVDNMVNSVDYQNDMDTNIKTKKKKKNQAYSNFYAKSDLPSSNIDEGSCKGCKASDTSSEFFSVASGMKPNN” here?
Answer: not soluble

Question: With “MAHHHHHHMKKNLIRWGEKVTDELTKVTLTDKPLGTDFDQGIENLQIKFKELFKIWKNASNKLINDFTSKLDTTSYLSSLQNFVDNEYEFYDSASSVCDEETNS” as the sequence, how does the “soluble on expression in E. coli” value read?
Answer: not soluble
